From article PMC10004559, “Identification of residues involved in allosteric signal transmission from amino acid binding site of pyruvate kinase muscle isoform 2” (PLOS ONE, 2023)

Tested on: C=C(OP(=O)(O)O)C(=O)O
Assay: purified protein, by the assay type
Conditions: ADP 0.8 mM, pH 7.5

PKM2 N70D (Homo sapiens; N70D), sequence (chain, as listed by the source N70D N70D): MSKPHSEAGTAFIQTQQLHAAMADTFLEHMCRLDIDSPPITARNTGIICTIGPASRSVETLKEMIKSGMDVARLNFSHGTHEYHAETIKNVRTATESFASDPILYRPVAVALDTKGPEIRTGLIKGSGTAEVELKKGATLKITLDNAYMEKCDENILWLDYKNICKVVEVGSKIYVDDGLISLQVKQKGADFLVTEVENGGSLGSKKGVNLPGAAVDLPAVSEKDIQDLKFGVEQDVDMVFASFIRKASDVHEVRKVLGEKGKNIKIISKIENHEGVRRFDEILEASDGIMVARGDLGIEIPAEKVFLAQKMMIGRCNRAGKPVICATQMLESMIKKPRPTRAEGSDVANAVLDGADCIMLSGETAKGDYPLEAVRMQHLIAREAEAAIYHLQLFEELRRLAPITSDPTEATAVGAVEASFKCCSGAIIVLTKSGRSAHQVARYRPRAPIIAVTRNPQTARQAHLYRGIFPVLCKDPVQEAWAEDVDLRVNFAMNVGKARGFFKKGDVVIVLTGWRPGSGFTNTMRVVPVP
PKM2 R106A (Homo sapiens; R106A), sequence (chain, as listed by the source R106A R106A): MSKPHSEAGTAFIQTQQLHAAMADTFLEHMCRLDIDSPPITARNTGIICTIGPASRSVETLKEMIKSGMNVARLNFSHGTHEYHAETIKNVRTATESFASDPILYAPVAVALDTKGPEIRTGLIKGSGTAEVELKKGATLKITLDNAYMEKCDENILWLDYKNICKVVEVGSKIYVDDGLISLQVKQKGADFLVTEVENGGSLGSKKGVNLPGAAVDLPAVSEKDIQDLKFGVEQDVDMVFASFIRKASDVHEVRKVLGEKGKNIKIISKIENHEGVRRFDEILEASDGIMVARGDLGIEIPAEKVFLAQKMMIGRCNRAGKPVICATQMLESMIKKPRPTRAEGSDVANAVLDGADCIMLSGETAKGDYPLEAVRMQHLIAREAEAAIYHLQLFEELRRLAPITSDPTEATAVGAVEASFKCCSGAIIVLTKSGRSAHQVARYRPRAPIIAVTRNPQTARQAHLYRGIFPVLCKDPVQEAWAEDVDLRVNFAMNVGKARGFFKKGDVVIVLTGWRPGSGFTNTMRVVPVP
PKM2 N75L (Homo sapiens; N75L), sequence (chain, as listed by the source N75L N75L): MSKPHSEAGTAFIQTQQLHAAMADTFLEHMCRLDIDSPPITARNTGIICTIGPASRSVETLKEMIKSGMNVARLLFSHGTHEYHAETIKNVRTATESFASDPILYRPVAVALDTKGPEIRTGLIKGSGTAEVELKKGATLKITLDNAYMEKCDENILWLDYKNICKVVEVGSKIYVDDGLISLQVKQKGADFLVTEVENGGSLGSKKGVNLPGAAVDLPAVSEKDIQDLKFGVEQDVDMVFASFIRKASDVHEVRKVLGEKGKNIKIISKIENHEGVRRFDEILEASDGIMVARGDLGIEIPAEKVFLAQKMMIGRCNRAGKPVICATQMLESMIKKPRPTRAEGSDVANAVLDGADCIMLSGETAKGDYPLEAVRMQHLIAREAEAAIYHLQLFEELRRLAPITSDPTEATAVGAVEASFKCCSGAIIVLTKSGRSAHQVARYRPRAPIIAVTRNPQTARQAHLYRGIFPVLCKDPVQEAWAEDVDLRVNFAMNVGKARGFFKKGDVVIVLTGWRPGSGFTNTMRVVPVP

With PKM2 N70D (Homo sapiens; N70D) the Km (other: 65 nM PKM2 N70D, no AA) was 780 ± 160 µM and the kcat/Km (other: 65 nM PKM2 N70D, no AA) was 5.9±1.3 ×10^3 mM^-1 min^-1.

Work on PKM2 N75L (Homo sapiens; N75L) yielded a Km (other: 4200 nM PKM2 N75L, no AA) of 80 µM.

With PKM2 R106A (Homo sapiens; R106A) the Km (other: 50 nM PKM2 R106A, no AA) was 510 ± 40 µM and the kcat/Km (other: 50 nM PKM2 R106A, no AA) was 9.6±0.8 ×10^3 mM^-1 min^-1.

wtPKM2 (Homo sapiens) showed a Km (other: 10 nM wtPKM2, no AA) of 700 µM.
